Experimental data reported in US7067484 (Genentech, dated 2006).

Molecular target: CD4-IgG (human, UniProt P01730 26-205)
Assay: immunoaffinity chromatography of BT20 conditioned medium on CD4-IgG-Protein A precolumn, SDS-PAGE with silver staining
Experimental: BT20 cells were grown to 80% confluence in 150 mm plates, harvested by 5 mM EDTA in PBS, and seeded into […] roller bottles with growth medium. After 1 week of growth the cells were nearly confluent. The growth medium was removed, the cells washed with PBS, and serum-free growth medium was added. After 5 days, conditioned medium was harvested (12 liters from 72 roller bottles), centrifuged, sterile filtered, concentrated in a 12 kD molecular weight cutoff Amicon filter, and stored at −70° C.
200 ml of BT20 conditioned media, concentrated as described above from 12 liters and frozen, was thawed, centrifuged at 17,000 rpm in a Sorvall SS34 rotor, and filtered through a 0.45 µm filter to clarify the solution. The 200 ml was pumped through a 2.0 ml CD4-IgG—Protein A (CD4-IgG covalently linked to Protein A through IgG moiety) immunoaffinity precolumn and a 1.0 ml REK7-IgG—Protein A (REK7-IgG covalently linked to Protein A through IgG moiety) immunoaffinity column in tandem with a flow rate of 0.5 ml/min. All chromatography was carried out at 4° C. […] The eluates were brought to pH 7.4 by the addition of 50 mM potassium phosphate, and an aliquot of each was analyzed by sodium dodecycl sulfate (SDS)—polyacrylamide gel electrophoresis (PAGE). […]

B1: AL-1 (REK7 ligand) purified from BT20 cell conditioned medium (ligand)
chain: QDPGSKAVADRYAVYWNSSNPRFQRGDYHIDVCINDYLDVFCPHYEDSVPEDKTERYVLYMVNFDGYSACDHTSKGFKRWECNRPHSPNGPLKFSEKFQLFTPFSLGFEFRPGREYFYISSAIPDNGRRSCLKLKVFVRPTNSCMKTIGVHDRVFDVNDKVENSLEPADDTVHESAEPSRGEN
notes: Soluble forms in serum-free conditioned medium of human BT20 cells; The 27,000 and 25,000 Dalton proteins appeared to be proteolytically processed forms of the 28,000 Dalton protein; also called 28,000, 27,000 and 25,000 Dalton proteins; BT20 cell-derived AL-1
B1: no binding.
